Experiment [1] concerns the target cynomolgus monkey γδ TCR on cynomolgus Vγ9+ γδ T cells (cynomolgus monkey). Briefly: flow cytometry on expanded cynomolgus γδ T cells gated Vγ9+, anti-human Fcγ A647, MdFI.
Experiment [2] concerns the target human γδ TCR (Vγ9Vδ2) on human Vδ2+ γδ T cells (human) (UniProt A0JD36). Briefly: flow cytometry on expanded human Vδ2+ γδ T cells, nonlinear fit. (In general: A flow cytometer gives signals particle by particle.)
Experiment [3] has the same target. Briefly: flow cytometry, monomeric VHH-hIgG1 Fc fusion on expanded human Vδ2+ γδ T cells, anti-human Fc A647, MFI.
For experiment [4] the target is unchanged. Briefly: flow cytometry on expanded human Vδ2+ γδ T cells, nonlinear fit; from data in FIG. 6J.
Experiment [5] has the same target. Put plainly: flow cytometry on expanded human Vδ2+ γδ T cells, nonlinear fit; from data in FIG. 6K.
For experiment [6] the target is unchanged. Put plainly: flow cytometry, monomeric VHH-hIgG1 Fc fusion on expanded human Vδ2+ γδ T cells, anti-human Fc A647, MFI. The source holds these as a separate data set.
For experiment [7] the target is unchanged. Put plainly: flow cytometry on zoledronate-expanded human γδ T cells gated Vδ2+, anti-VHH Alexa647, MdFI.

B1: bivalent 1D7 VHH-human IgG1 Fc xELL fusion (VHH)
VHH: QVQLVQSGGGLVQPGGSLRLSCVASRGKISQYRMGWYRQAPGKQRELVAHISNTGDAAEYVDSVKGRFTISRDSTKNAVYLQMNSLKPEDTAVYKCNSVEDILAWGQGTQVTVKP
For the molecule B1, the EC50 (read off the curve) (as a rule, the concentration giving half of the maximal effect) in experiment [1] amounted to 0.3 nM.

B2: hu1D7v3 VHH-hIgG1 Fc-NNT (monomeric) (VHH)
VHH: EVQLLESGGGEVQPGGSLRLSCVASGGKISQYRMGWYRQAPGKGLEWVAHISNTGDAAEYVDSVKGRFTISRDSTKNAVYLQMSSLRAEDTAVYKCNSVEDILAWGQGTLVTVKP
For B2, the Kd – broadly, the constant that tells how readily two partners part at equilibrium – in experiment [2] came to 51.1 nM. The EC50 (read off the curve) in experiment [3] stood at 20 nM.

B3: hu1D7v10 VHH-hIgG1 Fc-NNT (monomeric) (VHH)
VHH: EVQLLESGGGEVQPGGSLRLSCVASRGKISQYRMGWYRQAPGKGLEWVSHISNTGDAAEYVDSVKGRFTISRDSTKNAVYLQMSSLRAEDTAVYKCNSVEDILAWGQGTLVTVKP
In the case of B3, the Kd in experiment [2] was 60.9 nM.

B4: hu1D7v5 VHH-hIgG1 Fc-NNT (monomeric) (VHH)
VHH: EVQLLESGGGEVQPGGSLRLSCVASRGTISQYRMGWYRQAPGKGLEWVAHISNTGDAAEYVDSVKGRFTISRDSTKNAVYLQMSSLRAEDTAVYKCNSVEDILAWGQGTLVTVKP
Take B4: the Kd in experiment [2] is 108 nM. In experiment [3], this molecule gave an EC50 (read off the curve) of 30 nM.

B5: hu1D7v158 VHH-hIgG1 Fc-NNT (monomeric) (VHH)
VHH: EVQLLESGGGEVQPGGSLRLSCVASRGKISQYRMGWYRQAPGKQRELVAHISNTGDAAEYVAPVKGRFTISRDNAKNALYLQMNSLRAEDTAVYKCNTVEDILAWGQGTLVTVEP
For B5, the Kd in experiment [4] is 6.54 nM; in experiment [5], 2.96 nM. For the same molecule, the values for the EC50 (read off the curve) in experiment [3] and in experiment [6] were 6 nM and 3 nM, respectively.

B6: hu1D7v158-1 VHH-hIgG1 Fc-NNT (monomeric) (VHH)
VHH: EVQLLESGGGEVQPGGSLRLSCVASRGKISQYRMGWVRQAPGKQRELVAHISNTGDAAEYVAPVKGRFTISRDNAKNALYLQMNSLRAEDTAVYKCNTVEDILAWGQGTLVTVEP
The molecule B6 had a Kd in experiment [2] of 205 nM.

B7: 1D7v112 VHH-hIgG1 Fc-NNT (monomeric) (VHH)
VHH: EVQLLESGGGEVQPGGSLRLSCVASRGKISQYRMGWYRQAPGKERELVAHISNTGDAAEYVDVVKDRFTISRDSTKNALYLQMSSLRAEDTAVYKCNSVEDILAWGQGTLVTVRP
Molecule B7 yielded a Kd in experiment [2] of 226 nM.

B8: hu1D7v158-6 VHH-hIgG1 Fc-NNT (monomeric) (VHH)
VHH: EVQLLESGGGEVQPGGSLRLSCVASRGKISQYRMGWYRQAPGKQRELVAHISNTGDAAEYVASVKGRFTISRDNAKNALYLQMNSLRAEDTAVYKCNTVEDILAWGQGTLVTVEP
B8 showed a Kd in experiment [2] of 2.82 nM.

B9: hu1D7v158-7 VHH-hIgG1 Fc-NNT (monomeric) (VHH)
VHH: EVQLLESGGGEVQPGGSLRLSCVASRGKISQYRMGWYRQAPGKQRELVAHISNTGDAAEYVAPVKGRFTISRDNAKNTLYLQMNSLRAEDTAVYKCNTVEDILAWGQGTLVTVEP
In the case of B9, the Kd in experiment [2] came to 3.47 nM.

B10: hu1D7v158-5 VHH-hIgG1 Fc-NNT (monomeric) (VHH)
VHH: EVQLLESGGGEVQPGGSLRLSCVASRGKISQYRMGWYRQAPGKQRELVAHISNTGDAAEYVEPVKGRFTISRDNAKNALYLQMNSLRAEDTAVYKCNTVEDILAWGQGTLVTVEP
Molecule B10 registered a Kd in experiment [2] of 2.82 nM.

B11: hu1D7v86 VHH-hIgG1 Fc-NNT (monomeric) (VHH)
VHH: EVQLLESGGGEVQPGGSLRLSCVASRGKISQYRMGWYRQAPGKERELVAHISNTGDAAEYVGGVKDRFTISRDSTKNALYLQMSSLRAEDTAVYKCNSVEDILAWGQGTLVTVRP
As to B11, the Kd in experiment [2] stood at 126 nM. In experiment [3], the EC50 (read off the curve) worked out at 60 nM.

B12: hu1D7v158-10 VHH-hIgG1 Fc-NNT (monomeric) (VHH)
VHH: EVQLLESGGGEVQPGGSLRLSCVASRGKISQYRMGWYRQAPGKQRELVAHISNTGDAAEYVAPVKGRFTISRDNAKNALYLQMNSLRAEDTAVYYCNTVEDILAWGQGTLVTVEP
For the molecule B12, the Kd in experiment [2] was determined as 4.97 nM.

B13: 1D7v124 VHH-hIgG1 Fc-NNT (monomeric) (VHH)
VHH: EVQLLESGGGEVQPGGSLRLSCVASRGKISQYRMGWYRQAPGKERELVAHISNTGDAAEYVDGVKDRFTISRDSTKNALYLQMSSLRAEDTAVYKCNSVEDILAWGQGTLVTVRP
The molecule B13 displayed a Kd in experiment [2] of 72.2 nM.

B14: hu1D7v158-2 VHH-hIgG1 Fc-NNT (monomeric) (VHH)
VHH: EVQLLESGGGEVQPGGSLRLSCVASRGKISQYRMGWYRQAPGKQRELVSHISNTGDAAEYVAPVKGRFTISRDNAKNALYLQMNSLRAEDTAVYKCNTVEDILAWGQGTLVTVEP
In experiment [2], B14 yielded an equilibrium dissociation constant (Kd) of 3.28 nM.

B15: 1D7v113 VHH-hIgG1 Fc-NNT (monomeric) (VHH)
VHH: EVQLLESGGGEVQPGGSLRLSCVASRGKISQYRMGWYRQAPGKERELVAHISNTGDAAEYVDLVKDRFTISRDSTKNALYLQMSSLRAEDTAVYKCNSVEDILAWGQGTLVTVRP
As for B15, the Kd in experiment [2] came out at 192 nM.

B16: 1D7v125 VHH-hIgG1 Fc-NNT (monomeric) (VHH)
VHH: EVQLLESGGGEVQPGGSLRLSCVASRGKISQYRMGWYRQAPGKERELVAHISNTGDAAEYVEGVKDRFTISRDSTKNALYLQMSSLRAEDTAVYKCNSVEDILAWGQGTLVTVRP
As to B16, the Kd in experiment [2] was found to be 59 nM.

B17: hu1D7v99 VHH-hIgG1 Fc-NNT (monomeric) (VHH)
VHH: EVQLLESGGGEVQPGGSLRLSCVASRGKISQYRMGWYRQAPGKERELVAHISNTGDAAEYVSSVKDRFTISRDSTKNALYLQMSSLRAEDTAVYKCNSVEDILAWGQGTLVTVRP
B17 returned a Kd in experiment [2] of 116 nM. The molecule further yielded an EC50 (read off the curve) in experiment [3] of 60 nM.

B18: hu1D7v158-9 VHH-hIgG1 Fc-NNT (monomeric) (VHH)
VHH: EVQLLESGGGEVQPGGSLRLSCVASRGKISQYRMGWYRQAPGKEREFVAHISNTGDAAEYVAPVKGRFTISRDNAKNALYLQMNSLRAEDTAVYKCNTVEDILAWGQGTLVTVEP
Consider B18, for which the Kd in experiment [2] stood at 20 nM.

B19: 1D7v139 VHH-hIgG1 Fc-NNT (monomeric) (VHH)
VHH: EVQLLESGGGEVQPGGSLRLSCVASRGKISQYRMGWYRQAPGKERELVAHISNTGDAAEYVLSVKDRFTISRDSTKNALYLQMSSLRAEDTAVYKCNSVEDILAWGQGTLVTVRP
As to B19, the Kd in experiment [2] was 341 nM.

B20: hu1D7v158-3 VHH-hIgG1 Fc-NNT (monomeric) (VHH)
VHH: EVQLLESGGGEVQPGGSLRLSCVASRGKISQYRMGWYRQAPGKQRELVAAISNTGDAAEYVAPVKGRFTISRDNAKNALYLQMNSLRAEDTAVYKCNTVEDILAWGQGTLVTVEP
Regarding B20, in experiment [2], the Kd was 28 nM.

B21: hu1D7v85 VHH-hIgG1 Fc-NNT (monomeric) (VHH)
VHH: EVQLLESGGGEVQPGGSLRLSCVASRGKISQYRMGWYRQAPGKERELVAHISNTGDAAEYVSGVKDRFTISRDSTKNALYLQMSSLRAEDTAVYKCNSVEDILAWGQGTLVTVRP
Take B21: in experiment [2], the Kd came to 168 nM. The same molecule yielded an EC50 (read off the curve) in experiment [3] of 70 nM.

B22: hu1D7v158-4 VHH-hIgG1 Fc-NNT (monomeric) (VHH)
VHH: EVQLLESGGGEVQPGGSLRLSCVASRGKISQYRMGWYRQAPGKQRELVAHISNTGDAAEYAAPVKGRFTISRDNAKNALYLQMNSLRAEDTAVYKCNTVEDILAWGQGTLVTVEP
Take B22: the Kd in experiment [2] was 3.13 nM.

B23: hu1D7v158-8 VHH-hIgG1 Fc-NNT (monomeric) (VHH)
VHH: EVQLLESGGGEVQPGGSLRLSCVASRGKISQYRMGWYRQAPGKQRELVAHISNTGDAAEYAESVKGRFTISRDNAKNALYLQMNSLRAEDTAVYKCNTVEDILAWGQGTLVTVEP
B23: the Kd in experiment [2] came to 2.93 nM.

B24: 1D7v158×HSA×IL-2_X (h1D7v158 VHH - anti-HSA VHH - IL-2_X) (protein, part only; not given: anti-albumin VHH and linkers, part only)
chain, part: EVQLLESGGGEVQPGGSLRLSCVASRGKISQYRMGWYRQAPGKQRELVAHISNTGDAAEYVAPVKGRFTISRDNAKNALYLQMNSLRAEDTAVYKCNTVEDILAWGQGTLVTVEPAPASSSTKKTQLQLEALLLDLQMILNGINNYKNPKLTRMLTFKFYMPKKATELKHLQCLERELKRLEEVLNLAQSKNFHLRPRYLISNINVIVLELKGSETTFMCEYADETATIVEFLNRWITFSQSIISTLT
Consider B24, for which, in experiment [7], the EC50 (read off the curve) is 4 nM.

B25: 1D7×HSA×IL-2_X (anti-γδTCR-1D7 VHH - anti-HSA VHH - IL-2_X) (protein, part only; not given: anti-albumin VHH and linkers, part only)
chain, part: QVQLVQSGGGLVQPGGSLRLSCVASRGKISQYRMGWYRQAPGKQRELVAHISNTGDAAEYVDSVKGRFTISRDSTKNAVYLQMNSLKPEDTAVYKCNSVEDILAWGQGTQVTVKPAPASSSTKKTQLQLEALLLDLQMILNGINNYKNPKLTRMLTFKFYMPKKATELKHLQCLERELKRLEEVLNLAQSKNFHLRPRYLISNINVIVLELKGSETTFMCEYADETATIVEFLNRWITFSQSIISTLT
In turn, B25 had a half-maximal effective concentration (EC50 (read off the curve)) in experiment [7] of 5 nM.

(Values after US20250109203A1.)
